Experimental findings from the Immune Epitope Database (IEDB) are described below.

Among the targets are HLA-A*02:02; HLA-A*02:01; HLA-A*02:03; HLA-A*02:06; HLA-A*68:02.
Common to all, as to assay: IEDB peptide-MHC binding, purified MHC/competitive/radioactivity; ≥ and ≤ were set here for values at or beyond the usual limits of such assays
The mark [1] stands for this setting: source organism: Vaccinia virus WR.
Setting [2] is: source organism: Hepacivirus hominis.

In general, IC50 refers to the midpoint of a concentration-inhibition curve.

With IISYIILFIL, the IC50 with HLA-A*02:02 (setting [1]) turned out to be 66 nM; with HLA-A*02:01 (setting [1]), 580 nM; in the assay with HLA-A*02:03 (setting [1]) it was 489 nM; with HLA-A*02:06 (setting [1]), 3930 nM; in the assay with HLA-A*68:02 (setting [1]), 2090 nM.

For the sequence IITILQDIV, the IC50 in the assay with HLA-A*02:02 (setting [1]) is 827 nM; with HLA-A*02:01 (setting [1]) it was 109 nM; with HLA-A*02:03 (setting [1]) it was 666 nM; with HLA-A*02:06 (setting [1]) it was 658 nM; in the assay with HLA-A*68:02 (setting [1]), 1070 nM.

For the sequence IIYSKAGNIL, the IC50 turned out to be 8.5 nM in the assay with HLA-A*02:02 (setting [1]); 542 nM with HLA-A*02:01 (setting [1]); 110 nM with HLA-A*02:03 (setting [1]); 342 nM with HLA-A*02:06 (setting [1]); 3920 nM with HLA-A*68:02 (setting [1]).

Take ILASFSAST: the 50% inhibitory concentration (IC50) was 1.6 nM in the assay with HLA-A*02:02 (source organism: SARS-CoV1); 16 nM with HLA-A*02:01 (source organism: SARS-CoV1); 5.3 nM with HLA-A*02:03 (source organism: SARS-CoV1); 457 nM with HLA-A*02:06 (source organism: SARS-CoV1); 1220 nM in the assay with HLA-A*68:02 (source organism: SARS-CoV1).

ILATLNTLI: the IC50 in the assay with HLA-A*02:02 (setting [1]) was 0.41 nM; with HLA-A*02:01 (setting [1]) it was 15 nM; with HLA-A*02:03 (setting [1]), 0.23 nM; with HLA-A*02:06 (setting [1]) it was 40 nM; in the assay with HLA-A*68:02 (setting [1]) it was 2310 nM.

On to ILATLNTLIT, for which the IC50 in the assay with HLA-A*02:02 (setting [1]) stood at 7 nM; with HLA-A*02:01 (setting [1]) it was 443 nM; in the assay with HLA-A*02:03 (setting [1]), 12 nM; with HLA-A*02:06 (setting [1]), 629 nM; with HLA-A*68:02 (setting [1]) it was 1860 nM.

Regarding ILEYLYIMRV, the IC50 came out at 74 nM in the assay with HLA-A*02:02 (setting [1]); 30 nM in the assay with HLA-A*02:01 (setting [1]); 83 nM with HLA-A*02:03 (setting [1]); 134 nM in the assay with HLA-A*02:06 (setting [1]); 1350 nM in the assay with HLA-A*68:02 (setting [1]).

With ILFILFFAYV, the IC50 turned out to be 132 nM with HLA-A*02:02 (setting [1]); 139 nM with HLA-A*02:01 (setting [1]); 366 nM with HLA-A*02:03 (setting [1]); 1210 nM with HLA-A*02:06 (setting [1]); 320 nM in the assay with HLA-A*68:02 (setting [1]).

With ILISLINSLV, the IC50 in the assay with HLA-A*02:02 (setting [1]) is 23 nM; in the assay with HLA-A*02:01 (setting [1]), 83 nM; with HLA-A*02:03 (setting [1]), 3.1 nM; with HLA-A*02:06 (setting [1]), 151 nM; in the assay with HLA-A*68:02 (setting [1]) it was 141 nM.

For ILLILSCIFA, the IC50 in the assay with HLA-A*02:02 (setting [1]) is 448 nM; with HLA-A*02:01 (setting [1]) it was 21 nM; with HLA-A*02:03 (setting [1]), 307 nM; in the assay with HLA-A*02:06 (setting [1]), 492 nM; with HLA-A*68:02 (setting [1]), 2750 nM.

Consider ILMTHFFSI, for which the IC50 with HLA-A*02:02 (setting [2]) was 6.7 nM; in the assay with HLA-A*02:01 (setting [2]), 1.3 nM; with HLA-A*02:03 (setting [2]), 1 nM; in the assay with HLA-A*02:06 (setting [2]) it was 4.7 nM; with HLA-A*68:02 (setting [2]), 185 nM.

For ILMTHFFSIL, the IC50 with HLA-A*02:02 (setting [2]) was found to be 35 nM; in the assay with HLA-A*02:01 (setting [2]) it was 44 nM; with HLA-A*02:03 (setting [2]), 69 nM; in the assay with HLA-A*02:06 (setting [2]), 101 nM; with HLA-A*68:02 (setting [2]), 3970 nM.

With ILPDKIDGL, the IC50 with HLA-A*02:02 (setting [1]) is 1 nM; with HLA-A*02:01 (setting [1]), 62 nM; with HLA-A*02:03 (setting [1]), 3.5 nM; in the assay with HLA-A*02:06 (setting [1]), 43 nM; in the assay with HLA-A*68:02 (setting [1]) it was 4000 nM.

Regarding ILQMREIIT, the IC50 with HLA-A*02:02 (setting [1]) is 4100 nM; with HLA-A*02:01 (setting [1]), 380 nM; with HLA-A*02:03 (setting [1]) it was 1340 nM; with HLA-A*02:06 (setting [1]), 1230 nM; with HLA-A*68:02 (setting [1]), 1160 nM.

Regarding ILRNYLRLYI, the IC50 amounted to 0.39 nM in the assay with HLA-A*02:02 (setting [1]); 1 nM with HLA-A*02:01 (setting [1]); 0.9 nM with HLA-A*02:03 (setting [1]); 65 nM with HLA-A*02:06 (setting [1]); 2650 nM with HLA-A*68:02 (setting [1]).

Turning to ILSCIFAFI, the IC50 with HLA-A*02:02 (setting [1]) came out at 0.79 nM; with HLA-A*02:01 (setting [1]), 1.8 nM; with HLA-A*02:03 (setting [1]), 3.1 nM; with HLA-A*02:06 (setting [1]), 8.8 nM; with HLA-A*68:02 (setting [1]), 1.3 nM.

Turning to ILYYGANGST, the IC50 with HLA-A*02:02 (setting [1]) was found to be 341 nM; with HLA-A*02:01 (setting [1]), 290 nM; with HLA-A*02:03 (setting [1]) it was 39 nM; in the assay with HLA-A*02:06 (setting [1]), 1840 nM; with HLA-A*68:02 (setting [1]), 3830 nM.

Take IMAFILGII: the IC50 with HLA-A*02:02 (setting [1]) was found to be 17 nM; in the assay with HLA-A*02:01 (setting [1]), 166 nM; with HLA-A*02:03 (setting [1]) it was 30 nM; with HLA-A*02:06 (setting [1]), 175 nM; with HLA-A*68:02 (setting [1]) it was 2520 nM.

IMDKEQLLKI: the IC50 came to 311 nM in the assay with HLA-A*02:02 (setting [1]); 890 nM in the assay with HLA-A*02:01 (setting [1]); 288 nM with HLA-A*02:03 (setting [1]); 1340 nM with HLA-A*02:06 (setting [1]); 3240 nM in the assay with HLA-A*68:02 (setting [1]).

On to IMETIDPVYI, for which the IC50 with HLA-A*02:02 (setting [1]) turned out to be 29 nM; with HLA-A*02:01 (setting [1]), 127 nM; with HLA-A*02:03 (setting [1]), 239 nM; with HLA-A*02:06 (setting [1]), 349 nM; with HLA-A*68:02 (setting [1]), 821 nM.

On to IMFMLIFNV, for which the IC50 amounted to 0.15 nM with HLA-A*02:02 (setting [1]); 12 nM with HLA-A*02:01 (setting [1]); 10 nM in the assay with HLA-A*02:03 (setting [1]); 13 nM with HLA-A*02:06 (setting [1]); 13 nM in the assay with HLA-A*68:02 (setting [1]).

Consider IMQVFFGYFA, for which the IC50 with HLA-A*02:02 (source organism: SARS-CoV1) came to 590 nM; with HLA-A*02:01 (source organism: SARS-CoV1), 290 nM; with HLA-A*02:03 (source organism: SARS-CoV1) it was 1570 nM; with HLA-A*02:06 (source organism: SARS-CoV1) it was 51 nM; with HLA-A*68:02 (source organism: SARS-CoV1), 4500 nM.

As for IMRVMANNV, the IC50 is 396 nM in the assay with HLA-A*02:02 (setting [1]); 311 nM with HLA-A*02:01 (setting [1]); 1260 nM with HLA-A*02:03 (setting [1]); 2500 nM with HLA-A*02:06 (setting [1]); 1180 nM with HLA-A*68:02 (setting [1]).

With IMSIGFEARI, the IC50 was 703 nM with HLA-A*02:02 (setting [1]); 1590 nM with HLA-A*02:01 (setting [1]); 1500 nM in the assay with HLA-A*02:03 (setting [1]); 1600 nM in the assay with HLA-A*02:06 (setting [1]); 61 nM with HLA-A*68:02 (setting [1]).
